Reference: patent publication CN117756939A

Target: 人源LILRB1 (human LILRB1, on HEK293T-hLILRB1, Jurkat-hLILRB1 or Daudi cells) (human)
Experiment: flow cytometry, blocking of PE-HLA-G tetramer (2 μg/mL) binding to HEK293T-hLILRB1 cells

## BION-202 (Biond Biologics公司研发的靶向LILRB1人源化IgG4单克隆抗体) (antibody)
  IC50: 0.021 µg/mL
